Source: article PMC2891831, “Insight into the Mechanisms of Adenovirus Capsid Disassembly from Studies of Defensin Neutralization” (PLoS Pathogens, 2010)

Tested on: Ad5.eGFP
Test: Ad5.eGFP infection, eGFP-positive cells by flow cytometry
Assay type: cell-based, human adenovirus
Settings: 15 µM defensin, percent eGFP positive cells vs. no defensin, at least three independent experiments
Source text: To gain further insight into the defensin-HAdV interaction, we assessed the requirement for two conserved structural elements on the anti-AdV activity of HD5. All defensins have three disulfide bonds (Figure 3A). […] The antibacterial properties of defensins, which are dependent upon protein-lipid interactions, are not uniformly conformation dependent [27]–[29]. […] In contrast, defensin-related chemokine activity, which relies on protein-protein interactions, is dependent on defensin conformation. We hypothesized that the defensin-capsid interaction for sensitive serotypes would likely be dependent upon defensin conformation, as this would be more typical for protein-protein interactions. […]
Figure 3 HD5 antiviral activity is structure dependent. […] C) Binding of Alexa Fluor 488-labeled HAdV-5 to cells was assessed after incubation with or without 20 µM HD5 or HD5-Abu and in competition with 100 nM 5FK or 16 FK. Data are the mean fold increase in geometric mean fluorescence compared to cells alone and are of at least 10,000 cells from each of three independent experiments ± SD.
To test the activity of HD5 derivates, Ad5.eGFP was incubated with 15 µM of HD5, HD5-Abu, or HD5-E14Q. Infectivity was assessed by enumerating eGFP-positive cells by flow cytometry as described.

B1: HD5-E14Q: HD5 containing a substitution of glutamine for glutamic acid 14, to disrupt the conserved salt bridge (peptide, UniProt Q01523 20-94, looked up, variant E14Q)
Defensin alpha 5: ESLQERADEATTQKQSGEDNQDLAISFAGNGLSALRTSGSQARATCYCRTGRCATRQSLSGVCEISGRLYRLCCR
modifications: Defensin-5
notes: HD5 containing a substitution of glutamine for glutamic acid 14, to disrupt the conserved salt bridge
For B1, the “antiviral activity against Ad5.eGFP” value was “no effect on antiviral activity”.
